Results: patent US11111484B2, “Streptococcus bacteriophage lysins for detection and treatment of gram positive bacteria” (priority 2011, dated 2021)
“Also recorded” adds a separate entry of the source.

Legend:
S. pyogenes strain 5005 = experiment: resistance assay, exposure to incrementally increasing concentrations; format: cell-based, Streptococcus pyogenes; conditions: S. pyogenes 5005; concentration doubled daily from 1/32 to 4× MIC over 8 days
MRSA [1] = experiment: MRSA mouse sepsis model; format: in vivo, FVB/NJ mice
Protocol: PlySs2 lysin activity against S. aureus has been further evaluated in an MRSA mouse sepsis model. In the MRSA mouse sepsis model, susceptible mice (FVB/NJ mice, weight range 15-20 g) were injected with 500 μL of 5×10^5 (approx LD100) MRSA cells/mL in 5% hog gastric mucin in PBS intraperitoneally (IP). After 3 hours, all of the mice are bacteremic with MRSA in their organs (including spleen, liver, kidney, and heart/blood). To determine PlySs2 activity in this model, 500 μL PlySs2 at 2 mg/mL was injected IP 3 hours after injecting MRSA. […] Control mice were injected with 500 μL PBS. Survival was evaluated over ten days. The control mice die within 18-20 hours.

S. pyogenes = experiment: CFU studies, bactericidal effect; format: cell-based, Streptococcus pyogenes; conditions: 128 μg/ml PlySs2, 1 hour
Protocol: Log-phase bacteria were resuspended in buffer A to an OD600 of 0.1 (=0.5 McFarland≈10^8 CFU/ml). PlySs2 was added at 128 μg/ml to polypropylene microtiter plates (Costar) in triplicate for each test organism. Plates were sealed and incubated at 37° C. with shaking every 5 minutes for 1 hour. After 1 hour of incubation, cells were serially diluted in 10-fold increments and plated on BHI. Triplicate controls for each strain were performed with buffer B replacing PlySs2.

MRSA [2] = experiment: MRSA wound infection model in rats; conditions: dorsal wound; 500 μL + 100 μL PlySs2 at 10 mg/mL; after 10 days
S. suis strain 7711 = experiment: ΔPlySs1 growth inhibition in BHI broth; format: cell-based, Streptococcus suis; conditions: overnight, 96-well plate
Protocol: The optical density of each sample was measured continuously overnight in 96-well plate format. Overall, bacterial growth was delayed in a dose-dependent manner. However, for enzyme-concentrations that were sufficient to induce lysis in buffered solutions (130 and 50 μg/ml), the effect was quite minimal here. […] For all of the treated samples, one will note that the final optical densities are actually higher than that of the untreated sample. This is an artifact of the accumulation of aggregated bacterial debris that occurred in the presence of lytic enzyme.
(§1) Truncated PlySs1(ΔPlySs1) lysin activity was determined against different cell types. Given the above experiments, the following optimal buffering conditions were employed for all further in vitro experiments with ΔPlySs1: 20 mM phosphate buffer, pH=7.8, 2 mM EDTA. A range of lysin concentrations, from 6.5-130 μg/ml, were introduced to live S. suis cells in this buffer. Three strains were considered particularly relevant: 7711, the serotype 7 strain that encodes PlySs1; S735, the serotype 2 reference strain; and 7997, a highly virulent serotype 9 strain. In terms of bacterial viability, only the highest PlySs1-concentration (130 μg/ml) led to a >90% decrease in CFUs for 7711, S735, and 7997 after 1 hr treatment (TABLE 2). The lysin was also tested against actively-dividing cells in broth culture (strain 7711) (FIG. 20).

S. suis 7711 (ST7) = experiment: ΔPlySs1 CFU analysis, 1 hr treatment; format: cell-based, Streptococcus suis
Protocol: as §1
(§2) For two ΔPlySs1 concentrations (130 and 13 μg/ml), CFU analysis was conducted on S. suis strains S735, 7997, and 7711 after 1 hr treatment (optimal buffering conditions). In each experiment, the percentage-decrease in CFUs was determined for the treated sample versus the untreated. The range of the values observed (across 3 independent experiments) is reported here for each strain. The serotype of each strain is indicated in parentheses.

S. suis 7997 (ST9) = experiment: ΔPlySs1 CFU analysis, 1 hr treatment; format: cell-based, Streptococcus suis
Protocol: as §1, §2

S. suis S735 (ST2) = experiment: ΔPlySs1 CFU analysis, 1 hr treatment; format: cell-based, Streptococcus suis
Protocol: as §1, §2

S. dysgalactiae 21597 = experiment: ΔPlySs1 OD600 lysis, 1 hr, optimal buffering conditions; format: cell-based, Streptococcus dysgalactiae
S. pneumoniae R36 = experiment: as above; format: cell-based, Streptococcus pneumoniae
S. pyogenes D471 = experiment: as above; format: cell-based, Streptococcus pyogenes
S. equi 9528 = experiment: as above; format: cell-based, Streptococcus equi
L. monocytogenes HER1084 = experiment: as above; format: cell-based, Listeria monocytogenes
[3] = tested on: Group E streptococci K131; experiment: as above; format: cell-based
S. salivarius 9222 = experiment: as above; format: cell-based
S. agalactiae 090R = experiment: as above; format: cell-based, Streptococcus agalactiae

B1: PlySs2: Streptococcus suis prophage lysin, SEQ ID NO:3; N-terminal CHAP domain and C-terminal SH3-type 5 domain (protein, listed as Streptococcus suis)
chain: MTTVNEALNNVRAQVGSGVSVGNGECYALASWYERMISPDATVGLGAGVGWVSGAIGDTISAKNIGSSYNWQANGWTVSTSGPFKAGQIVTLGATPGNPYGHVVIVEAVDGDRLTILEQNYGGKRYPVRNYYSAASYRQQVVHYITPPGTVAQSAPNLAGSRSYRETGTMTVTVDALNVRRAPNTSGEIVAVYKRGESFDYDTVIIDVNGYVWVSYIGGSGKRNYVATGATKDGKRFGNAWGTFK
development of resistance (S. pyogenes strain 5005): neither MRSA nor S. pyogenes established resistance; also recorded: None of MRSA strain MW2, MSSA strain 8325, nor S. pyogenes strain 5005 developed resistance | survival evaluated over ten days (MRSA [1]; 500 μL PlySs2 at 2 mg/mL IP 3 hours after MRSA): remarkable survival | mice cleared of bacteremia (survival over 10 days) (MRSA [1]; MRSA bacteremia, FIG. 24): 95% | reduction of colony forming units (CFUs) (S. pyogenes): 3 logs | drop of CFU's of MRSA compared with control rats (MRSA [2]): 3-4 logs

B2: ΔPlySs1: truncated PlySs1 lysin, SEQ ID NO:2, N-terminal 254 amino acids: only N-terminal enzymatic and central binding domains (protein, listed as Streptococcus suis)
chain: MTINLETSIRWMSDRVGKVSYSMDYRNGPNSYDCSSAVYYALMAGGAISAGWAVNTEYMHDWLIRNGYVLVAENKPFNAQRHDVCILGKRGYSSGAGGHVVIFVDNVNVIHCNYARNGISIDNYNQVHRGMYYYLYRPANQPSISNKSLDQLVKETLAGVHGNGDTRKASLGSQYEAVMAVINGKASASEKSDEELAREVLAGKHGAGEDRKRSLGPRYEPVQAKVNELLKAKEKPSETAKNEPQTVQFKEDGDL
MIC / growth inhibition (S. suis strain 7711): could not inhibit S. suis growth outright; also recorded: a MIC could not be assigned | percentage-decrease in CFUs, range of 3 experiments (S. suis 7711 (ST7); 13 μg/ml): 0%-35.6% | percentage-decrease in CFUs, range of 3 experiments (S. suis 7711 (ST7); 130 μg/ml): 95.3%-99.2% | percentage-decrease in CFUs, range of 3 experiments (S. suis 7711 (ST7); 130 μg/ml, listed as PlySs1): > 90% | percentage-decrease in CFUs, range of 3 experiments (S. suis 7997 (ST9); 13 μg/ml): 16.8%-30.3% | percentage-decrease in CFUs, range of 3 experiments (S. suis 7997 (ST9); 130 μg/ml): 89.9%-93.9% | percentage-decrease in CFUs, range of 3 experiments (S. suis 7997 (ST9); 130 μg/ml, listed as PlySs1): > 90% | percentage-decrease in CFUs, range of 3 experiments (S. suis S735 (ST2); 13 μg/ml): 80.4%-92.6% | percentage-decrease in CFUs, range of 3 experiments (S. suis S735 (ST2); 130 μg/ml): 95.4%-99.5% | percentage-decrease in CFUs, range of 3 experiments (S. suis S735 (ST2); 130 μg/ml, listed as PlySs1): > 90% | lysis value after 1 hr (treated/untreated OD600 ratio) (S. dysgalactiae 21597; 6.5 μg/ml): 0.26 | lysis value after 1 hr (treated/untreated OD600 ratio) (S. dysgalactiae 21597; 13 μg/ml): 0.18 | lysis value after 1 hr (treated/untreated OD600 ratio) (S. dysgalactiae 21597; 30 μg/ml): 0.12 | lysis value after 1 hr (treated/untreated OD600 ratio) (S. dysgalactiae 21597; 65 μg/ml): 0.10 | lysis value after 1 hr (treated/untreated OD600 ratio) (S. dysgalactiae 21597; 130 μg/ml): 0.09 | lysis value after 1 hr (treated/untreated OD600 ratio) (S. pneumoniae R36; 6.5 μg/ml): 0.25 | lysis value after 1 hr (treated/untreated OD600 ratio) (S. pneumoniae R36; 13 μg/ml): 0.22 | lysis value after 1 hr (treated/untreated OD600 ratio) (S. pneumoniae R36; 30 μg/ml): 0.14 | lysis value after 1 hr (treated/untreated OD600 ratio) (S. pneumoniae R36; 65 μg/ml): 0.16 | lysis value after 1 hr (treated/untreated OD600 ratio) (S. pneumoniae R36; 130 μg/ml): 0.12 | lysis value after 1 hr (treated/untreated OD600 ratio) (S. pyogenes D471; 6.5 μg/ml): 0.39 | lysis value after 1 hr (treated/untreated OD600 ratio) (S. pyogenes D471; 13 μg/ml): 0.27 | lysis value after 1 hr (treated/untreated OD600 ratio) (S. pyogenes D471; 30 μg/ml): 0.17 | lysis value after 1 hr (treated/untreated OD600 ratio) (S. pyogenes D471; 65 μg/ml): 0.13 | lysis value after 1 hr (treated/untreated OD600 ratio) (S. pyogenes D471; 130 μg/ml): 0.09 | lysis value after 1 hr (treated/untreated OD600 ratio) (S. equi 9528; 6.5 μg/ml): 0.66 | lysis value after 1 hr (treated/untreated OD600 ratio) (S. equi 9528; 13 μg/ml): 0.45 | lysis value after 1 hr (treated/untreated OD600 ratio) (S. equi 9528; 30 μg/ml): 0.25 | lysis value after 1 hr (treated/untreated OD600 ratio) (S. equi 9528; 65 μg/ml): 0.19 | lysis value after 1 hr (treated/untreated OD600 ratio) (S. equi 9528; 130 μg/ml): 0.16 | lysis value after 1 hr (treated/untreated OD600 ratio) (L. monocytogenes HER1084; 6.5 μg/ml): 0.63 | lysis value after 1 hr (treated/untreated OD600 ratio) (L. monocytogenes HER1084; 13 μg/ml): 0.52 | lysis value after 1 hr (treated/untreated OD600 ratio) (L. monocytogenes HER1084; 30 μg/ml): 0.26 | lysis value after 1 hr (treated/untreated OD600 ratio) (L. monocytogenes HER1084; 65 μg/ml): 0.14 | lysis value after 1 hr (treated/untreated OD600 ratio) (L. monocytogenes HER1084; 130 μg/ml): 0.04 | lysis value after 1 hr (treated/untreated OD600 ratio) ([3]; 6.5 μg/ml): 0.69 | lysis value after 1 hr (treated/untreated OD600 ratio) ([3]; 13 μg/ml): 0.50 | lysis value after 1 hr (treated/untreated OD600 ratio) ([3]; 30 μg/ml): 0.33 | lysis value after 1 hr (treated/untreated OD600 ratio) ([3]; 65 μg/ml): 0.22 | lysis value after 1 hr (treated/untreated OD600 ratio) ([3]; 130 μg/ml): 0.15 | lysis value after 1 hr (treated/untreated OD600 ratio) (S. salivarius 9222; 6.5 μg/ml): 0.80 | lysis value after 1 hr (treated/untreated OD600 ratio) (S. salivarius 9222; 13 μg/ml): 0.76 | lysis value after 1 hr (treated/untreated OD600 ratio) (S. salivarius 9222; 30 μg/ml): 0.56 | lysis value after 1 hr (treated/untreated OD600 ratio) (S. salivarius 9222; 65 μg/ml): 0.53 | lysis value after 1 hr (treated/untreated OD600 ratio) (S. salivarius 9222; 130 μg/ml): 0.37 | lysis value after 1 hr (treated/untreated OD600 ratio) (S. agalactiae 090R; 6.5 μg/ml): 0.97 | lysis value after 1 hr (treated/untreated OD600 ratio) (S. agalactiae 090R; 13 μg/ml): 0.99 | lysis value after 1 hr (treated/untreated OD600 ratio) (S. agalactiae 090R; 30 μg/ml): 0.97 | lysis value after 1 hr (treated/untreated OD600 ratio) (S. agalactiae 090R; 65 μg/ml): 0.98 | lysis value after 1 hr (treated/untreated OD600 ratio) (S. agalactiae 090R; 130 μg/ml): 0.93
